Ends that are not written are not given here. * marks the point of attachment. Crotonyl(E) = C/C=C/C(=O)*
T1: MORF DPF domain (residues 211–322) F218A (human, UniProt Q8WYB5 211-322, F218A)
T1 sequence: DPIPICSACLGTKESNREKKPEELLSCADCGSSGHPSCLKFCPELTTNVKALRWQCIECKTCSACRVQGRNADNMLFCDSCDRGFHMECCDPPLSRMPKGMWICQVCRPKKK

T2: MORF DPF domain (residues 211–322), wild type (human, UniProt Q8WYB5 211-322)
T2 chain: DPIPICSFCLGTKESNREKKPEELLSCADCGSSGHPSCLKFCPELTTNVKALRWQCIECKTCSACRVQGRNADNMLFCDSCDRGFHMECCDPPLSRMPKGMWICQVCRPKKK

T3: MORF DPF domain (residues 211–322) F287A/R306E/K309E (human, UniProt Q8WYB5 211-322, F287A | R306E | K309E)
T3 sequence: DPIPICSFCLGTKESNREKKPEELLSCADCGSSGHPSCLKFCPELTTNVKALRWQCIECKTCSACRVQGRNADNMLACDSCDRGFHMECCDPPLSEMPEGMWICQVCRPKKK


Columns and labels:
[1] = target: MORF DPF domain (residues 211–322) F287A (human, UniProt Q8WYB5 211-322, F287A); assay: NMR
Sequence of MORF DPF domain (residues 211–322) F287A (Q8WYB5 211-322 F287A): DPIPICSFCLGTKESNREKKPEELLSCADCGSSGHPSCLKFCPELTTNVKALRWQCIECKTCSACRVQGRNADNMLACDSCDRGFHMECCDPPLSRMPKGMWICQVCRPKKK

[2] = target: T1, MORF DPF domain (residues 211–322) F218A
[3] = target: T2, MORF DPF domain (residues 211–322), …
[4] = target: T3, MORF DPF domain (residues 211–322) …; assay: NMR

| Kd [1] | Kd [2] | Kd [3] | Kd [4] | Binder |
| --- | --- | --- | --- | --- |
| 8000 µM | 3.3 µM | 3.6 µM |  | ARTKQTARKSTGGKAPRKQ [unmodified histone H3 peptide (residues 1–19 of H3)] |
|  |  |  | 285 µM | ARTKQTARKSTGGK(Crotonyl(E))APRKQ [histone H3K14cr peptide (residues 1–19 of H3)] |
